Earlier results on one substance are cited in publication PMC12580572.

Usually Kd stands for the free concentration of one partner at which half of the binding sites on the other are occupied at equilibrium, for simple one-to-one binding.

The target of series [1] is GluK5 (Rattus norvegicus) (UniProt Q63273).
Series [2] concerns the target GluK2 (Rattus norvegicus) (UniProt P42260).

Chain of UniProt Q63273 (Q63273 15-979): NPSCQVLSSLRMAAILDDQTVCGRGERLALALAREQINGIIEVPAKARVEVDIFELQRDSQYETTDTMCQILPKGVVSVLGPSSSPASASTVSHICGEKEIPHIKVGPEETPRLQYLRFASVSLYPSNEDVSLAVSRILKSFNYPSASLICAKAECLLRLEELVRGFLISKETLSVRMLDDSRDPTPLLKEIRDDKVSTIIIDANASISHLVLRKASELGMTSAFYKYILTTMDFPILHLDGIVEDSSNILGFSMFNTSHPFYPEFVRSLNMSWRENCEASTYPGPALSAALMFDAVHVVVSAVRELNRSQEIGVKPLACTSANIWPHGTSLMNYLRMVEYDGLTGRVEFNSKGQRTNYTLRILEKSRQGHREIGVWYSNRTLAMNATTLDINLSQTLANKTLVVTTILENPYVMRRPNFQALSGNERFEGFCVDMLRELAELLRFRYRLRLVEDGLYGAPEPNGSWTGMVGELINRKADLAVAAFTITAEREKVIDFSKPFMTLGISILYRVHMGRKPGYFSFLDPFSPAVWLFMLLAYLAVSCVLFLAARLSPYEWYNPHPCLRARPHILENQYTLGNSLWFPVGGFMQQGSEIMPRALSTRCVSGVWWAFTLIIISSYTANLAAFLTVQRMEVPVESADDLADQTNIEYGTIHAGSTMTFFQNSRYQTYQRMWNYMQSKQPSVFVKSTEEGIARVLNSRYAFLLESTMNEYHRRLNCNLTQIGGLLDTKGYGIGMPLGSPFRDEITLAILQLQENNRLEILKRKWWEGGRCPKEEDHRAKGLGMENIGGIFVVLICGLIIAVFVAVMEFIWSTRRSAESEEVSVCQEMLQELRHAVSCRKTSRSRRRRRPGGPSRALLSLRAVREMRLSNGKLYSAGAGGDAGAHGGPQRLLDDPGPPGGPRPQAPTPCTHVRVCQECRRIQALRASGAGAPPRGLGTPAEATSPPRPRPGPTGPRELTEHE

For the substance GluK2 (from UniProt P42260), the Kd in series [1] was 77 nM; in series [2], 350 nM.
